Data published in patent US20070116718A1.

Experiments:
[1] = target: bacteriophage displaying the DO11.10 scTCR/gene VIII fusion protein (vector pKC51) (murine; fd tet bacteriophage); assay: phage panning on biotin antibody on neutrAvidin wells, phage diluted 1:50,000 in irrelevant phage
[2] = target: single-chain MHC class II I-A^d complex with OVA 323-339 peptide, immobilized (chicken; murine) (UniProt P01012); assay: cell-based or functional assay

Sequence of bacteriophage displaying the DO11.10 scTCR/gene VIII fusion protein (vector pKC51) (murine; fd tet bacteriophage) (main, as listed by the source): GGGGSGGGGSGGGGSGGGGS

| Substance | fold enrichment after a single round of panning [1] [fold] | level of IL-2 inhibition, DO11.10 group against gD12 hybridoma group [2] [fold] |
| --- | --- | --- |
| anti-V-β8.2 monoclonal antibody MR5-2 (PharMingen) | 5000 |  |
| bacteriophage displaying the DO11.10 scTCR/gene VIII fusion protein (vector pKC51) |  | 8 to 10 |
| hamster anti-mouse αβ TCR antibody H57-597 (ATCC HB-218) | 5000 |  |
